# Assay results from patent publication US10407503B2, “Fully human antibodies and fragments recognizing human c-Met” (THE REGENTS OF THE UNIVERSITY OF CALIFORNIA, priority 2012, dated 2019).
# Entries after “also recorded” stand apart in the source; their conditions may differ.
# B1: H5 cys-diabody (other)
# chain: QVQLQESGGGLVQPGGSLRLSCAASGFTFSNYAMSWVRQAPGKGLEWVSAISGSGGSTYYADSVKGRFTISRDNSKNTLYLQMNSLRAEDTAVYYCAKDRFRAAAYWGQGTLVTVSSGGGGGSQSVLTQPPSVSAAPGQKVTISCTGSSSNIGAGYDVHWYQQLPGTAPKLLIYGNSNRPSGVPDRFSGSKSGTSASLAISGLQSEDEADYYCAAWDDILNGEIFGGGTKVTVLGAAAEQKLISEEDLNGAAHHHHHHC
# notes: Expressed in E. coli and purified through the His tag; also called H5 diabody
# B2: H5 cys-diabody: human anti-c-Met cys-diabody comprising SEQ ID NO:24 (protein)
# chain: B1 chain
# modifications: H5 cys-diabody sequence
# B3: F1 ScFv antibody (phage-displayed) (scFv)
# scFv: QVQLVQSGAEVKKPGASVKVSCKASGYTFTDYYMHWVRQAPGEGLEWMGWMNPNSGGTNYAQKFQGRVTMTRDTSISTAYMELSRLRSDDTAVYYCARSHYWDSWSPGTLVTVSSGGGGGSGGGGSGGGGSSALTQPASVSGSPGQSITISCTGTSGDVGGYNYVSWYQQHPGKAPKLMIYDVSNRPSGVSNRFSGSKSGNTASLTISGLQAEDEADYYCTSYAGSRNLVFGGGTKLTVLG
# notes: The fusion to the phage coat protein is not described
# B4: C2 cys-diabody (other)
# chain: QVQLQESGGGLVQPGGSLRLSCAASGFTFSSYAMSWVRQAPGKGLEWVSAISGSGGSTYYADSVKGRFTISRDNSKNTLYLQMNSLRAEDTAVYYCASQHVGEQSRYFDYWGQGTLVTVSSGGGGGSDIVMTQSPSSLSASIGDRVTITCRASHSISSYVNWYQKKPGKAPNLLIYAASYLPRGVPSRFSGSGLGTDFTLTISNLQPEDFATYYCQESYSTPYSFGQGTKVDIKRAAAEQKLISEEDLNGAAHHHHHHC
# notes: Expressed in E. coli and purified through the His tag; also called C2 diabody
# B5: C2 cys-diabody: human anti-c-Met cys-diabody comprising SEQ ID NO:18 (protein)
# chain: B4 chain
# modifications: C2 cys-diabody sequence
# Assays:
# [1] = molecular target: T1, c-MET on the surface of Hcc827 or Hcc827-GR6 cells (human, UniProt P08581 25-1390); assay: flow cytometry binding curve on cells (the sheet does not name them; paragraph 217: Hcc827 GR6 cell line)
# T1 construct: whole, on cells; The cells express the receptor endogenously, and MET is amplified in Hcc827-GR6; also called cell surface MET
# T1 sequence (P08581 25-1390): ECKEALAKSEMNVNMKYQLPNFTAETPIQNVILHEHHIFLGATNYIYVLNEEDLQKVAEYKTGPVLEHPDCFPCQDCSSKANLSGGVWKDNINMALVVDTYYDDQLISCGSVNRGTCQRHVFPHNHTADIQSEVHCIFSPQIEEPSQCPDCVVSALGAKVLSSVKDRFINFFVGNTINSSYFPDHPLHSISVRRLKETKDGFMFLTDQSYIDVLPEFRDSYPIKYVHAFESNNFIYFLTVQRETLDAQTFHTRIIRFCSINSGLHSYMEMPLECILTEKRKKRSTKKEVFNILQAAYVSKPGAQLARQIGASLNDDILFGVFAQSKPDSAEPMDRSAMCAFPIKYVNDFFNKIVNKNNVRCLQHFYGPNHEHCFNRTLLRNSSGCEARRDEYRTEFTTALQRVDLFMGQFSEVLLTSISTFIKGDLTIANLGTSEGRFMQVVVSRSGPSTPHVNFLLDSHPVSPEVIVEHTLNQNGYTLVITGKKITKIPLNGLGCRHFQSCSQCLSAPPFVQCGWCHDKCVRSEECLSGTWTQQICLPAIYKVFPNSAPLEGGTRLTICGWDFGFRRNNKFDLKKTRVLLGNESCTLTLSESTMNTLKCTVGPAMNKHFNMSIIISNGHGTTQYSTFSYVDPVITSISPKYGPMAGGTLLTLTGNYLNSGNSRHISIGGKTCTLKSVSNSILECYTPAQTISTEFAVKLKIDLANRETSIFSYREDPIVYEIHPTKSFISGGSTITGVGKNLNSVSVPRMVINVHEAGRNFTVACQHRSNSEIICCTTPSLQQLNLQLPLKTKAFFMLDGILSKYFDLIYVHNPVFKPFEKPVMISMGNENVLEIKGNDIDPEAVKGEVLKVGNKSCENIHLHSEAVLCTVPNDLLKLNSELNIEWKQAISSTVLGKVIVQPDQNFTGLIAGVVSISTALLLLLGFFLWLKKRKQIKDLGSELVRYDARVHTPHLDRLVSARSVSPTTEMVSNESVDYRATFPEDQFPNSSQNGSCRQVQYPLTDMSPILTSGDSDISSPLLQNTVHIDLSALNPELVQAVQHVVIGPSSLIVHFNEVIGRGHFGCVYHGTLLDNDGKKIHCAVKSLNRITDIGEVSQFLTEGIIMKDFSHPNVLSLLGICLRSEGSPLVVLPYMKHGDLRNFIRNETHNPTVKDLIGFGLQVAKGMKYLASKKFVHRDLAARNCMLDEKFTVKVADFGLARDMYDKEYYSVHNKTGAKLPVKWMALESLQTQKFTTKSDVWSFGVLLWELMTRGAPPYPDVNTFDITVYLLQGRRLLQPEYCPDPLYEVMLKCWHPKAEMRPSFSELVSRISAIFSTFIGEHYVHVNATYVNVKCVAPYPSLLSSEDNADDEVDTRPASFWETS
# Procedure: (§1) The affinities of the cys-diabodies were evaluated by flow cytometry. Serial diluted cys-diabodies were incubated with Hcc827-GR6 cells at 4 degrees for 2 hours. The cys-diabodies were detected with 1/100 mouse anti-c-Myc antibody (Sigma, Cat# M4439) and stained with 1/100 PE or FITC conjugated goat anti mouse IgG polyclonal antibody (Jackson ImmunoResearch) in flow buffer.
# (§2) The affinity of these 3 cys-diabodies were evaluated by flow cytometry. The concentrations of the purified proteins were determined by their A280, measured with Nanodrop 2000 (Thermal Scientific), and their calculated extinction coefficient (ProtParam tool, expasy.org). The binding curve was fitted with one-site total binding model by GraphPad Prism.
# [2] = molecular target: T1, c-MET on the surface of Hcc827 or …; assay: flow cytometry on Hcc827-GR6 cells, one-site total binding fit
# Procedure: as §1, §2
# [3] = molecular target: T2, mouse MET-hIgG Fc fusion protein (Sino Biological Inc.) (mouse; human, UniProt P16056 25-931, limits assumed); assay: capture ELISA: cys-diabody coated on the plate, mouse MET-hIgG Fc applied, detected with alkaline phosphatase anti-human IgG
# T2 construct: Bought protein; also called mouse MET protein; MET-hFc
# T2 sequence (P16056 25-931 limits assumed): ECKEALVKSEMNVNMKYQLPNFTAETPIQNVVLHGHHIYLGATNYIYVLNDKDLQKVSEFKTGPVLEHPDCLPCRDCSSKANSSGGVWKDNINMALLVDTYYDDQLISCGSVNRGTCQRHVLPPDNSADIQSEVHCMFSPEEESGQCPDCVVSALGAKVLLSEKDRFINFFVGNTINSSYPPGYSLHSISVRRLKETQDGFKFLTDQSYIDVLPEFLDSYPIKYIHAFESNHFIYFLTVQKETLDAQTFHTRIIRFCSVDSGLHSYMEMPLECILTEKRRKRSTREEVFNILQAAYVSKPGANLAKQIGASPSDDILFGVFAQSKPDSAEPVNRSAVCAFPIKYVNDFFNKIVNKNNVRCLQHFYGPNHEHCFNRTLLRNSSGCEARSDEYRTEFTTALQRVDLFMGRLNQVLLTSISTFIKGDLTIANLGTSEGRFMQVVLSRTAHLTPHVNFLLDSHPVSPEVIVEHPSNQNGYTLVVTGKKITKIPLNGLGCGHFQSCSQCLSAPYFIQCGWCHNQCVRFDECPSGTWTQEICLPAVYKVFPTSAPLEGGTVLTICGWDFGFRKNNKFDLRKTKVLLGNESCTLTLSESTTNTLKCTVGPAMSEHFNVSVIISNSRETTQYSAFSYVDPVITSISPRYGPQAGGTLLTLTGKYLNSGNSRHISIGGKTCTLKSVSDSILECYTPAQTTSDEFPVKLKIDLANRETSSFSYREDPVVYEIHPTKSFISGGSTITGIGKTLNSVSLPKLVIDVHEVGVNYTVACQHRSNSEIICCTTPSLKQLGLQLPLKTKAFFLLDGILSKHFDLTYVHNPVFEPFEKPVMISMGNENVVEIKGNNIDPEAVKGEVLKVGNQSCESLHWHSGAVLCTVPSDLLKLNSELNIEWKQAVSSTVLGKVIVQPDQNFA
# Procedure: 1 µg of purified anti-MET cys-diabodies in 100 µL PBS were used to coat each well at 4 degree overnight. Anti-EpCAM cys-diabody or 2% milk-PBS were used for negative controls. The overnight coated plate was then washed with PBS and blocked with 2% milk-PBS at 37 degree for 2 hours. The plate was then washed with PBS before adding 0.1 µg human or mouse MET-hIgG Fc fusion protein (purchased from Sino Biological Inc.) in 100 µL, 2% milk-PBS to each well. The plate was incubated at room temperature for 1.5 hours, and then washed with PBS-Tween and PBS. The captured human or mouse MET-hIgG Fc were detected with alkaline phosphatase conjugated goat anti-human IgG.
# C2, H2 and H5 cys-diabodies were used to coat 96-well ELISA plate to capture human or mouse MET-hIgG Fc fusion protein. The human IgG Fc on the fusion protein was detected with alkaline phosphatase conjugated goat anti-human IgG. The results in FIG. 4 show H2 cys-diabody can bind to both human and mouse MET protein, while C2 and H5 cys-diabodies show minimal cross reactivity to the mouse MET. Anti-EpCAM H9 cys-diabody or 2% milk-PBS were used as negative controls.
# mouse MET protein = molecular target: T3, mouse MET protein (Mus musculus, UniProt P16056); assay: Anti-MET ELISA, mouse MET-hIgG Fc captured by coated cys-diabodies (cross reactivity); format: binding; details: coated cys-diabody captures mouse MET-hFc
# T3 construct: purchased Sino Biological Inc
# T3 sequence (P16056 with tags, fused parts or gaps limits assumed): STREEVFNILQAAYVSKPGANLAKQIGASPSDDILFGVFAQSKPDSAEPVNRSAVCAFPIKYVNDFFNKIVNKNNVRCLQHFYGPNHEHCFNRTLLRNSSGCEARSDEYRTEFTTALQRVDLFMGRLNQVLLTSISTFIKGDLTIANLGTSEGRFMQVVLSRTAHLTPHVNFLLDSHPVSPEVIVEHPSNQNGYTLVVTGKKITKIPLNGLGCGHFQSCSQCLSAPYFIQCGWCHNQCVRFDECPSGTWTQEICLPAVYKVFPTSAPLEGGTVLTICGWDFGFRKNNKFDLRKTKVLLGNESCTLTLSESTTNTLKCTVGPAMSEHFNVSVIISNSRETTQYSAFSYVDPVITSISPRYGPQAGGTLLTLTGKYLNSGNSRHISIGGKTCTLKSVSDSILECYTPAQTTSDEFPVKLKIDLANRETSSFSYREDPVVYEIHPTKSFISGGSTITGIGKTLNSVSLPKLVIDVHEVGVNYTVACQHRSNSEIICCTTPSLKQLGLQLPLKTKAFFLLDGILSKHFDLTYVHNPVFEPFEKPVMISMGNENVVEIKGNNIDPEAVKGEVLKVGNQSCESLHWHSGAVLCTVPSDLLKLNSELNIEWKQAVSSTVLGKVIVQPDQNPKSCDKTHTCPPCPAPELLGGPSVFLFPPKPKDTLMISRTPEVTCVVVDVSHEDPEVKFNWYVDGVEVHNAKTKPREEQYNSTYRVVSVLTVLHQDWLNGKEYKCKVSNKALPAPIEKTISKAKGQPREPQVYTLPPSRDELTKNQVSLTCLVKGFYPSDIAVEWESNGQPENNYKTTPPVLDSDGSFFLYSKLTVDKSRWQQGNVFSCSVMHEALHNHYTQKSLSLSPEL
# T3 sequence (P16056 25-306 limits assumed): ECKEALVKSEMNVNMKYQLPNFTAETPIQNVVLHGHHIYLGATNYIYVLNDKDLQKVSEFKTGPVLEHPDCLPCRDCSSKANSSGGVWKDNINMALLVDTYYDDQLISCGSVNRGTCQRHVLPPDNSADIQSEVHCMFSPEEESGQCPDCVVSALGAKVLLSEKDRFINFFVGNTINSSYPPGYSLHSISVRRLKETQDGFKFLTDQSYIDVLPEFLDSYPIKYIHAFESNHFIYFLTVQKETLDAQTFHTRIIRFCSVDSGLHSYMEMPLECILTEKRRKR
# Procedure: (§3) Three rounds of selections on human MET protein were performed which were successfully reformatted and purified 3 cys-diabodies. C2, H2 and H5 cys-diabodies were tested for cross-reactivity to mouse MET protein. Different cys-diabodies were coated to 96-well plate (milk or anti-EpCAM cys-diabody was used as negative control). Either mouse or human MET protein was applied to the coated cys-diabodies. Then the MET-hFc proteins were detected by anti-human Fc antibody.
# (§4) 1 μg of purified anti-MET cys-diabodies in […], PBS were used to coat each well at 4 degree overnight. Anti-EpCAM cys-diabody or 2% milk-PBS were used for negative controls. The overnight coated plate was then washed with PBS and blocked with 2% milk-PBS at 37 degree for 2 hours. […] The captured human or mouse MET-hIgG Fc were detected with alkaline phosphatase conjugated goat anti-human IgG.
# (§5) C2, H2 and H5 cys-diabodies were used to coat 96-well ELISA plate to capture human or mouse MET-hIgG Fc fusion protein. The human IgG Fc on the fusion protein was detected with alkaline phosphatase conjugated goat anti-human IgG. […]
# (§6) Three rounds of selections on human MET protein were performed, and three cys-diabodies were reformatted and purified (the C2, H2 and H5 cys-diabodies). […] Then the MET-hFc proteins were detected by anti-human Fc antibody.
# human MET protein = molecular target: T4, human MET protein (Homo sapiens, UniProt P08581); assay: Anti-MET ELISA, human MET-hIgG Fc captured by coated cys-diabodies; format: binding; details: coated cys-diabody captures human MET-hFc
# T4 construct: purchased Sino Biological Inc
# T4 sequence (P08581 with tags, fused parts or gaps limits assumed): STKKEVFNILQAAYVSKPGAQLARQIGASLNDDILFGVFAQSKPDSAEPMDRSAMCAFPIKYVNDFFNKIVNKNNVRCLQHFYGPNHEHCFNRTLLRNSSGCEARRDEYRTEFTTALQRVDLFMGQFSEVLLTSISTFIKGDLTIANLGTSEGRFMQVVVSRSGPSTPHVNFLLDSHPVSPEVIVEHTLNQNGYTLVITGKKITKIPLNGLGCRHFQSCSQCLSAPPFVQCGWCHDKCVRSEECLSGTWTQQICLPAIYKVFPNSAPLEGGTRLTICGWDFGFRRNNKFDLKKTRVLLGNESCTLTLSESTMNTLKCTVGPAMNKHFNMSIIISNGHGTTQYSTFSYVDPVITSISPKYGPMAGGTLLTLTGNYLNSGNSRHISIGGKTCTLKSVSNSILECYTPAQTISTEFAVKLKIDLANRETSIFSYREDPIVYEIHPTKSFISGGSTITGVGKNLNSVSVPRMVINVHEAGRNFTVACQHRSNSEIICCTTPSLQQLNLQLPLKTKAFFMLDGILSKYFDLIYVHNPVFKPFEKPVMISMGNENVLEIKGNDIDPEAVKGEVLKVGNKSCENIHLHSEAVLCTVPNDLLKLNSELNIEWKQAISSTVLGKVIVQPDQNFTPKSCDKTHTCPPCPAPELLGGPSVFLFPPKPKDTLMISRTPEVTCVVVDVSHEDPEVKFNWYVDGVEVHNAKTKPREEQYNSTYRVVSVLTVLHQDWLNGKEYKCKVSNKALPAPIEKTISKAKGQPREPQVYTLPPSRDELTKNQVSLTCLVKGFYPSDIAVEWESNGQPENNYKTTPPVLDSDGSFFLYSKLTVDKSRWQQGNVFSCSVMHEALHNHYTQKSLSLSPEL
# T4 sequence (P08581 25-307 limits assumed): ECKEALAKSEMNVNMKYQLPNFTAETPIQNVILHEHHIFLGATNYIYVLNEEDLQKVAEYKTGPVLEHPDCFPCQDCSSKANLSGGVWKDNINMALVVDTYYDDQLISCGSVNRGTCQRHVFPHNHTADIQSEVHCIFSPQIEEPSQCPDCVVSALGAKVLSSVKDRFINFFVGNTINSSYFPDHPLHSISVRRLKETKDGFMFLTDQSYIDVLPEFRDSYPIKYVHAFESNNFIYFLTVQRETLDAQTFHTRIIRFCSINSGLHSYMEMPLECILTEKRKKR
# Procedure: as §3, §4, §5, §6
# Hcc827-GR6 cells = assay: MTS cell growth assay, gefitinib resistant Hcc827-GR6 cells; format: cell-based; details: 3 days, with or without 1 μM gefitinib, MET amplified
# Procedure: (§7) These diabodies also show therapeutic effects on resistant cells with MET amplification. […] The diabodies were also applied to the resistant cell line GR6 with or without 1 μM gefitinib.
# (§8) Cell growth and inhibition were evaluated by MTS assay. The MTS assay was based on the ability of live cells to convert 3-(4,5-dimethylthiazol-2-yl)-5-(3-carboxymethoxyphenyl)-2-(4-sulfophenyl)-2H-tetrazolium (MTS) to formazan. The quantity of formazan product was measured by 500 nm absorbance, which is proportional to the number of living cells in culture. The assay was performed with the CellTiter96 AQueous Assay Kit from Promega (Cat# G5421), according to the recommended protocol. 2×10^4 cells were seeded in each well of the 96-well plates and treated with different combination of antibodies and drugs for 3 days before the MTS assay. Each combination of cell line and drug and antibody treatment was set up in at least 4 replicate wells. And the results were normalized to the cells treated with media only.
# (§9) Different cell lines were treated with C2, H2 or H5 cys-diabodies at different concentrations with or without 1 micromolar of gefitinib for 3 days, and then the cell growth was evaluated with MTS assay. […] All three cys-diabodies show no effects on the parental Hcc827 cells without gefitinib.
# These diabodies also show therapeutic effects on resistant cells with MET amplification. The parental cell line, Hcc827, was treated with the diabodies for 3 days, and the diabodies show no effects on the growth of the parental line at all.
# [4] = molecular target: T1, c-MET on the surface of Hcc827 or …; assay: phage flow cytometry on Hcc827 cells, bound phage detected with FITC anti-M13 antibody
# Procedure: For phage antibodies, flow cytometry was used to confirm their binding to c-MET expressing cells. Bacteria culture containing phage was concentrated 30 times into PBS according to published method (Antibody Engineering Methods and Protocols, Benny K. C. Lo). $2 \sim 5 \times 10^5$ c-MET positive Hcc827 or Hcc827-GR6 cells (Engelman et. al, Science, 2007) were incubated with 100 ul concentrated phage and 30 ul 4% milk-PBS on ice for 1 hour. Cells were then washed using flow buffer (PBS, 1% FBS, 2 mM EDTA), and the binding phage antibodies were detected by FITC conjugated anti-M13 monoclonal antibody (Santa Cruz Biotechnology, Cat# sc-53005 Fitc).
# Hcc827 cells = assay: MTS cell growth assay, parental Hcc827 cells; format: cell-based; details: 3 days, with 1 micromolar gefitinib
# Procedure: as §7, §8, §9
# These diabodies also show therapeutic effects on resistant cells with MET amplification. […]
Molecule,Kd [1] [nM],Kd [2] [nM],binding result [3],cross reactivity to mouse MET protein (mouse MET protein),binding to human MET protein (human MET protein),also measured
B1,4.7,4.6,no binding,–,–,–
B2,–,–,–,bind to only human MET; also recorded: minimal cross reactivity to the mouse MET,bind to only human MET,inhibition of growth of resistant Hcc827-GR6 cells (Hcc827-GR6 cells): inhibition of the resistant cells at higher concentration; inhibition of growth of resistant Hcc827-GR6 cells (Hcc827-GR6 cells; listed as H5 diabody): some inhibition at high concentrations; also recorded: inhibition only at high concentrations
B3,–,–,–,–,–,binding result [4]: binds
B4,2,2.4,no binding,–,–,–
B5,–,–,–,bind to only human MET; also recorded: minimal cross reactivity to the mouse MET,bind to only human MET,effect on growth of sensitive Hcc827 cells with gefitinib (Hcc827 cells): protects the sensitive Hcc827 cells from gefitinib inhibition; inhibition of growth of resistant Hcc827-GR6 cells (Hcc827-GR6 cells; listed as C2 diabody): some inhibition at high concentrations; also recorded: inhibition only at high concentrations
